Consider one molecule from patent US6808930B1, “Therapeutic agents” (priority 1997, dated 2004).

Data set [1] deals with L1210 cells. The data set is described as follows: Cell surface binding of biotinylated protein, flow cytometry. Set-up: species or system murine. As to conditions: biotinylated MAL. The procedure: (§1) MAL, human α-lactalbumin (HLA) and immunoglobulin G were biotinylated according to the manufacturer's instructions or labelled with ^125I with the lactoperoxidase method. Proteins were dissolved in PBSA-T buffer (30 mM Na2HPO4, 120 mM NaCl, pH 7.4, with 0.1% NaAzid, 0.05% Tween-20) and 25 μl of protein (25 μg) was incubated with 2 μl of ^125([…]), 2 μl of lactoperoxidase (2.5 mg/ml) and 2 μl of H2O2 (diluted 1:2000 in PBS) for 2 min at room temperature. The reaction was stopped by the addition of 500 μl of PBSA-T. The labelled protein was purified on a PD-10 column. 500 μl fractions in PBSA-T were eluted and fractions containing radioactivity were stored at […]. […] L1210, A549 and HRTEC cells (3×10^6 cells/ml, 50 μl) were incubated in suspension with 50 μl of biotinylated MAL, ALA or BSA for various times at 37° C. The cells were washed with PBS by centrifugation at 320×g for 10 min and the supernatant was discarded. FITC-conjugated streptavidin (diluted 1:50 in PBS) was added and the cells were incubated for 30 min at room temperature. The cells were washed by centrifugation as above, suspended in 300 μl PBS and the surface fluorescence was analysed by flow cytometry on a Coulter Epics Profile II flow cytometer (Coulter Inc.), equipped with a 488 nm argon laser. Green fluorescence was detected with a 525 nm band pass filter. The PMT voltage was initially set to 1250 V and adjusted for day to day variation using calibration with Immunobeads (Coulter).
In general terms: A flow cytometer gives signals particle by particle.

Data set [2] deals with A549 cells. In words: Nuclear uptake of biotinylated protein, confocal microscopy. It counts as cell-based, human. The method, then: (§2) To detect intracellular protein, the cells were fixed at various times after addition of 0.3 mg/ml of biotinylated MAL for 5 min in phosphate-buffered paraformaldehyde (4%) (B. Sander et al., Immunol. Rev. (1991) 119: 65-92) at room temperature, washed in PBS, and permeabilized with 0.1% saponin in PBS. FITC conjugated streptavidin (diluted 1:100 in 0.1% saponin) was added and the cells were incubated for 30 min at room temperature. The cells were washed twice in PBS-saponin and once in PBS, mounted on a glass slide and analysed in a Bio-Rad 1024 laser scanning confocal equipment (Bio Rad Laboratories, Hemel-Hempstead, UK) attached to a Nikon Diaphot inverted microscope.

The test system of data set [3] is L1210 cells. The data set is described as follows: Cell surface binding of 125I-labelled protein, cell associated radioactivity. On the set-up: species or system murine. As to conditions: 30 min exposure to 2×10^6 cpm of 125I-labelled protein. The procedure: Cell surface binding of MAL was also quantitated as the cell associated radioactivity during the first 30 min after addition of ^125I-labelled MAL to the cells (FIG. 2B). […]

For data set [4], the system named is L1210 cells. In words: DNA fragmentation by gel electrophoresis and FIGE. Format: cell-based, murine. The procedure: (§3) Remaining cells were analysed for DNA fragmentation.
Data set [5] has as its system HRTEC cells. The data set is described as follows: Cell viability by trypan blue exclusion. Format: cell-based, human. The procedure: as §3
For data set [6], the system named is A549 cells. The data set is described as follows: Cell viability by trypan blue exclusion. Format: cell-based, human. The procedure:
as §3

The test system of data set [7] is HRTEC cells. In words: Cell surface binding of biotinylated protein, flow cytometry. On the set-up: species or system human. As to conditions: biotinylated MAL, 30 min; third of three cell types (HRTEC by order). The procedure: as §1, with “The PMT voltage was initially set to 1250 V and adjusted for day to day variation using calibration with Immunobeads (Coulter).” left out

The subject of data set [8] is A549 cells. The data set is described as above. On the set-up: species or system human. As to conditions: biotinylated MAL, 30 min; second of three cell types (A549 by order). The procedure: as §1, with “The PMT voltage was initially set to 1250 V and adjusted for day to day variation using calibration with Immunobeads (Coulter).” left out
For data set [9], the system named is digitonin-permeabilized cells. The data set is described as follows: DNA fragmentation in digitonin-permeabilized cells. Format: cell-based. As to conditions: 0.4 mg/ml. The method, then: Briefly, 1×10^6 cells were incubated in 100 μl of nuclear transport buffer (NTB), with the addition of 1 μg/ml each of leupeptin, aprotinin, antipain, and 40 μg/ml of digitonin for 5 min at room temperature and washed by centrifugation at 320×g for 10 min in NTB. Biotinylated protein (5 μl, 5 mg/ml) was added to the cells in a total volume of 100 μl NTB supplemented with phosphcreatin, creatine phosphokinase and ATP, incubated for various time at RT and washed twice in NTB by centrifugation at 320×g for 10 min. The cells were treated with 0.2% Triton-X100 in NTB for 6 min and washed finally 1:100 dilution of fluorescein-conjugated strepatvidin was added for 30 min at RT and washed. The cells were then inspected by fluorescence microscopy in a Nikon Microphot (Japan) microscope or by laser scanning confocal microscopy in a BioRad MRC-1024 instrument.
When adding 0.4 mg/ml of MAL to digitonin-permeabilized cells, HMW DNA fragments were formed after 1 hour and oligonucleosomal fragments after 2 hours. […] IgG was not detected in isolated nuclei or in nuclei of digitonin-permabilized cells (FIG. 7a).

Data set [10] deals with L1210 cells. The data set is described as follows: Nuclear uptake of biotinylated protein, confocal microscopy. It counts as cell-based, murine. The procedure:
as §2

[11] abbreviates: stated for the three cell types.

B1: MAL: protein complex from human milk casein containing oligomeric forms of α-lactalbumin; the apoptosis-inducing fraction (protein, UniProt P00709 20-142, looked up)
Alpha-lactalbumin: KQFTKCELSQLLKDIDGYGGIALPELICTMFHTSGYDTQAIVENNESTEYGLFQISNKLWCKSSQVPQSRNICDISCDKFLDDDITDDIMCAKKILDIKGIDYWLAHKALCTEKLEQWLCEKL
modifications: oligomeric form from milk casein
notes: protein complex from human milk casein containing oligomeric forms of α-lactalbumin; the apoptosis-inducing fraction
As for B1, the “fluorescence intensity of cell surface binding” value in the data set on L1210 cells [1] (30 min, first of three cell types (L1210 by order)) is listed as 12.1 times that of the streptavidin control; in the data set on HRTEC cells [7] it was 8.5 times that of the streptavidin control; in the data set on A549 cells [8], 13.4 times that of the streptavidin control. Moreover, the “time after which cell surface binding reached a maximum” value with L1210 cells [1] (setting [11]) was determined as 30 min. The “time after which cell surface binding was detected” value with L1210 cells [1] (setting [11]) was 10 min. The “incubation time after which cytoplasmic, granular fluorescence was detected” value with A549 cells [2] (FIG. 3) came to 3 h. Besides, the “incubation time at which nuclear accumulation was maximal” value with A549 cells [2] (FIG. 3) was determined as 24 h. Moreover, the cytoplasmic staining entry is “granular fluorescence evenly distributed throughout the cell” with A549 cells [2] (biotinylated MAL) and “Cytoplasmic staining was not observed” in the data set on L1210 cells [10] (biotinylated MAL). For the same molecule, the “cell nuclei stained brightly” value in the data set on A549 cells [2] (biotinylated MAL, longer incubation times (time not given)) is listed as “About 15%”. In addition, the “cell surface binding, cell associated radioactivity” value in the data set with L1210 cells [3] is 23 000 cpm. For the same molecule, the “time at which fragmentation of DNA was first seen” value with L1210 cells [4] (0.3 mg/ml) came to 6 h. Besides, the “incubation time after which HMW DNA fragments were observed” value in the data set on L1210 cells [4] (0.5 mg/ml) worked out at 30 min. Further, the “incubation time after which oligonucleosome length DNA fragments were detected” value in the data set with L1210 cells [4] (0.5 mg/ml) was “three”. Moreover, in the data set with L1210 cells [4] (0.75 mg/ml), the “time at which fragmentation of DNA was seen” value amounted to 2 h. In addition, in the data set with HRTEC cells [5] (HRTEC cells, 24 h incubation with up to 4 mg/ml), the cell viability result is on record as “remained fully viable”. Moreover, the “sensitivity to MAL-induced apoptosis” value in the data set on HRTEC cells [5] (non-transformed cultures (HRTEC), within the tested concentration range) is recorded as “resistant”; with A549 cells [6], “intermediately sensitive”. Also, in data set [9], the “time after which HMW DNA fragments were formed” value came to 1 h. In addition, the “time after which oligonucleosomal fragments were formed” value in data set [9] came to 2 h. Besides, the “cells with nuclear staining” value is given as “about 10%” in the data set with L1210 cells [10] (0.3 mg/ml biotinylated protein, after about 2 hours (first detected)) and 10% in the data set on L1210 cells [10] (0.3 mg/ml, after 1 hour).
